These results are taken from article PMC8852700, “Distinct Serotypes of Streptococcal M Proteins Mediate Fibrinogen-Dependent Platelet Activation and Proinflammatory Effects” (Infection and Immunity, 2021).

For assay [1], the target named is M3 protein (Streptococcus pyogenes) (UniProt Q54841).
Assay [2] shares this target. The source holds these as a separate data set.
Assay [3] has the same target. This is another data set of the same source.
The next assay addresses T1, M1 protein (Streptococcus pyogenes, UniProt Q99XV0 1-484).
T1 sequence: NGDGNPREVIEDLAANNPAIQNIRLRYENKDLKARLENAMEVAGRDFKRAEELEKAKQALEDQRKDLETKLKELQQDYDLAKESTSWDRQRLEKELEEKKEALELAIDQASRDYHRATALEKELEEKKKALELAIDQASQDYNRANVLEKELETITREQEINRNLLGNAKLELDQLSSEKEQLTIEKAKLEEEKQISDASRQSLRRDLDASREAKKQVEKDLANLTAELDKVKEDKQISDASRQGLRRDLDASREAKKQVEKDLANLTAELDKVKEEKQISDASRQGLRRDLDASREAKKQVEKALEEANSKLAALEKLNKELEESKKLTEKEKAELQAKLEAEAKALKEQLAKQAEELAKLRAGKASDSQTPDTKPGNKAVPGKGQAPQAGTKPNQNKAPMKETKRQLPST
Kind of assay: cell-based or functional assay.

The target of the next assay is T2, M5 protein (Streptococcus pyogenes, UniProt P02977 43-461).
T2 sequence: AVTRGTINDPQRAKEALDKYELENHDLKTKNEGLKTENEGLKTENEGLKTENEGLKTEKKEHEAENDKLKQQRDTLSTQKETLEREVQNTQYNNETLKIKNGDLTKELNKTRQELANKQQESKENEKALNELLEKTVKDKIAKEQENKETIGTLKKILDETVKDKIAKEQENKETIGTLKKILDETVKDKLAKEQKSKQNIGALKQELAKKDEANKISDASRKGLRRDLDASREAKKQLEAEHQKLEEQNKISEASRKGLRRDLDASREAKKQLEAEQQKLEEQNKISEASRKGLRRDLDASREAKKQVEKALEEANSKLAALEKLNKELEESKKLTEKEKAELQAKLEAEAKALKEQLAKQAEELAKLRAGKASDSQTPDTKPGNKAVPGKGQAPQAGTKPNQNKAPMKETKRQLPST
Kind of assay: cell-based or functional assay.

In assay [1], “human fibrinogen (from UniProt P02671 36-866; P02675 45-491; P02679 27-453) (natural protein)” showed a platelet-monocyte complex formation: percentage of monocytes positive for CD61, flow cytometry of whole blood, median of 10 donors (background 4%) of 17% and a platelet-neutrophil complex formation: percentage of neutrophils positive for CD61, flow cytometry of whole blood, median of 10 donors (background 18%) of 53%. In addition, the platelet activation: percentage of platelets positive for CD62P, flow cytometry of platelet-rich plasma, median of 10 donors (background 3%) in assay [2] was found to be 55%. In assay [3], the monocyte activation: fold increase of CD11b median fluorescence intensity above background, flow cytometry of whole blood, 10 donors amounted to 3 fold and the neutrophil activation: fold increase of CD11b median fluorescence intensity above background, flow cytometry of whole blood, 10 donors was found to be 5 fold.

B1: human fibrinogen (natural protein)
chain 1: GPRVVERHQSACKDSDWPFCSDEDWNYKCPSGCRMKGLIDEVNQDFTNRINKLKNSLFEYQKNNKDSHSLTTNIMEILRGDFSSANNRDNTYNRVSEDLRSRIEVLKRKVIEKVQHIQLLQKNVRAQLVDMKRLEVDIDIKIRSCRGSCSRALAREVDLKDYEDQQKQLEQVIAKDLLPSRDRQHLPLIKMKPVPDLVPGNFKSQLQKVPPEWKALTDMPQMRMELERPGGNEITRGGSTSYGTGSETESPRNPSSAGSWNSGSSGPGSTGNRNPGSSGTGGTATWKPGSSGPGSTGSWNSGSSGTGSTGNQNPGSPRPGSTGTWNPGSSERGSAGHWTSESSVSGSTGQWHSESGSFRPDSPGSGNARPNNPDWGTFEEVSGNVSPGTRREYHTEKLVTSKGDKELRTGKEKVTSGSTTTTRRSCSKTVTKTVIGPDGHKEVTKEVVTSEDGSDCPEAMDLGTLSGIGTLDGFRHRHPDEAAFFDTASTGKTFPGFFSPMLGEFVSETESRGSESGIFTNTKESSSHHPGIAEFPSRGKSSSYSKQFTSSTSYNRGDSTFESKSYKMADEAGSEADHEGTHSTKRGHAKSRPVRDCDDVLQTHPSGTQSGIFNIKLPGSSKIFSVYCDQETSLGGWLLIQQRMDGSLNFNRTWQDYKRGFGSLNDEGEGEFWLGNDYLHLLTQRGSVLRVELEDWAGNEAYAEYHFRVGSEAEGYALQVSSYEGTAGDALIEGSVEEGAEYTSHNNMQFSTFDRDADQWEENCAEVYGGGWWYNNCQAANLNGIYYPGGSYDPRNNSPYEIENGVVWVSFRGADYSLRAVRMKIRPLVTQ
chain 2: GHRPLDKKREEAPSLRPAPPPISGGGYRARPAKAAATQKKVERKAPDAGGCLHADPDLGVLCPTGCQLQEALLQQERPIRNSVDELNNNVEAVSQTSSSSFQYMYLLKDLWQKRQKQVKDNENVVNEYSSELEKHQLYIDETVNSNIPTNLRVLRSILENLRSKIQKLESDVSAQMEYCRTPCTVSCNIPVVSGKECEEIIRKGGETSEMYLIQPDSSVKPYRVYCDMNTENGGWTVIQNRQDGSVDFGRKWDPYKQGFGNVATNTDGKNYCGLPGEYWLGNDKISQLTRMGPTELLIEMEDWKGDKVKAHYGGFTVQNEANKYQISVNKYRGTAGNALMDGASQLMGENRTMTIHNGMFFSTYDRDNDGWLTSDPRKQCSKEDGGGWWYNRCHAANPNGRYYWGGQYTWDMAKHGTDDGVVWMNWKGSWYSMRKMSMKIRPFFPQQ
chain 3: YVATRDNCCILDERFGSYCPTTCGIADFLSTYQTKVDKDLQSLEDILHQVENKTSEVKQLIKAIQLTYNPDESSKPNMIDAATLKSRKMLEEIMKYEASILTHDSSIRYLQEIYNSNNQKIVNLKEKVAQLEAQCQEPCKDTVQIHDITGKDCQDIANKGAKQSGLYFIKPLKANQQFLVYCEIDGSGNGWTVFQKRLDGSVDFKKNWIQYKEGFGHLSPTGTTEFWLGNEKIHLISTQSAIPYALRVELEDWNGRTSTADYAMFKVGPEADKYRLTYAYFAGGDAGDAFDGFDFGDDPSDKFFTSHNGMQFSTWDNDNDKFEGNCAEQDGSGWWMNKCHAGHLNGVYYQGGTYSKASTPNGYDNGIIWATWKTRWYSMKKTTMKIIPFNRLTIGEGQQHHLGGAKQVRPEHPAETEYDSLYPEDDL
On to B1, for which the “monocyte activation: fold increase of CD11b median fluorescence intensity above background, flow cytometry of whole blood, 10 donors” value is 7 fold in the assay with M1 protein and 4 fold in the assay with M5 protein. Besides, the “neutrophil activation: fold increase of CD11b median fluorescence intensity above background, flow cytometry of whole blood, 10 donors” value was 14 fold with M1 protein and 9 fold in the assay with M5 protein.
